Columns and labels:
[1] = target: T1, YadA of Y. enterocolitica serotype O:3 (strain 6471/76), on the bacterial surface (Y. enterocolitica serotype O:3 (strain …, UniProt P31489 26-455)); test: radioligand binding; 125I-C4bp with 3x10^8 bacteria in 1/3 GVBS with NaCl from 50 to 650 mM; binding as percent of that at 50 mM NaCl; conditions: one partner purified
T1 construct: adhesin YadA, Y. enterocolitica 6471/76 serotype O:3, GenBank protein CAA32086; trimeric outer membrane protein; also called YadA (wild type, YeO3); source: endogenous (virulence plasmid pYV), on Y. enterocolitica O:3 strain 6471/76 (YeO3), grown in RPMI 1640 at 37°C
T1 sequence: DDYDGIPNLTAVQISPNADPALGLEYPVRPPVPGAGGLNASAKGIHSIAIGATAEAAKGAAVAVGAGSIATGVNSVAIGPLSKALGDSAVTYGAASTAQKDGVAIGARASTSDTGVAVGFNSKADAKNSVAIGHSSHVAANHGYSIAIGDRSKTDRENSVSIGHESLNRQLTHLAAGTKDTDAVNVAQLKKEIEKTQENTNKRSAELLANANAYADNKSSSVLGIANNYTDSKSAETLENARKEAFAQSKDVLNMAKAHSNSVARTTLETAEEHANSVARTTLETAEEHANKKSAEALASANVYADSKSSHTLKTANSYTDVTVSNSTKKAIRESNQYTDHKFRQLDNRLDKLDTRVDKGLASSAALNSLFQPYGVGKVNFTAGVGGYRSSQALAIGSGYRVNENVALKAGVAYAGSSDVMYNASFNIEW

[2] = target: T2, Ail of Y. enterocolitica serotype O:3, expressed in trans from pTM100-ail on strain YeO3-c-Ail-OCR (Y. enterocolitica serotype O:3, UniProt Q70AM3 24-178); test: radioligand binding; 125I-C4bp (or 125I-BSA) with 3x10^8 bacteria in hypotonic 1/3 GVBS (50 mM NaCl), 30 min at 37°C; bacteria pelleted through 20% sucrose; bound as percent of total radioactivity; conditions: one partner purified
T2 construct: Ail, Y. enterocolitica serotype O:3, ail gene cloned as 1711 bp PCR fragment into pTM100; GenBank protein CAE53849; Same protein as m5, from a plasmid; also called Ail (complemented); YeO3-c-Ail-OCR/pTM100-ail; source: pTM100-ail (cloned ail gene) in Y. enterocolitica YeO3-c-Ail-OCR (YadA-, Ail-, O-ag-, OC-), on the bacteria; overexpressed
T2 sequence: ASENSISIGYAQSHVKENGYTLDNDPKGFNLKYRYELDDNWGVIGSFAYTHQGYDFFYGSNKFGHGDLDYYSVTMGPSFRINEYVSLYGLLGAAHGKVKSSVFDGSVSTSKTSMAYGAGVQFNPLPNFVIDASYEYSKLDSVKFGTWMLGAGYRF

B1: C4b-binding protein (C4bp) with protein S (complex)
chain 1: NCGPPPTLSFAAPMDITLTETRFKTGTTLKYTCLPGYVRSHSTQTLTCNSDGEWVYNTFCIYKRCRHPGELRNGQVEIKTDLSFGSQIEFSCSEGFFLIGSTTSRCEVQDRGVGWSHPLPQCEIVKCKPPPDIRNGRHSGEENFYAYGFSVTYSCDPRFSLLGHASISCTVENETIGVWRPSPPTCEKITCRKPDVSHGEMVSGFGPIYNYKDTIVFKCQKGFVLRGSSVIHCDADSKWNPSPPACEPNSCINLPDIPHASWETYPRPTKEDVYVVGTVLRYRCHPGYKPTTDEPTTVICQKNLRWTPYQGCEALCCPEPKLNNGEITQHRKSRPANHCVYFYGDEISFSCHETSRFSAICQGDGTWSPRTPSCGDICNFPPKIAHGHYKQSSSYSFFKEEIIYECDKGYILVGQAKLSCSYSHWSAPAPQCKALCRKPELVNGRLSVDKDQYVEPENVTIQCDSGYGVVGPQSITCSGNRTWYPEVPKCEWETPEGCEQVLTGKRLMQCLPNPEDVKMALEVYKLSLEIEQLELQRDSARQSTLDKEL
chain 2: SDAEHCPELPPVDNSIFVAKEVEGQILGTYVCIKGYHLVGKKTLFCNASKEWDNTTTECRLGHCPDPVLVNGEFSSSGPVNVSDKITFMCNDHYILKGSNRSQCLEDHTWAPPFPICKSRDCDPPGNPVHGYFEGNNFTLGSTISYYCEDRYYLVGVQEQQCVDGEWSSALPVCKLIQEAPKPECEKALLAFQESKNLCEAMENFMQQLKESGMTMEELKYSLELKKAELKAKLL
chain 3: ANSLLEETKQGNLERECIEELCNKEEAREVFENDPETDYFYPKYLVCLRSFQTGLFTAARQSTNAYPDLRSCVNAIPDQCSPLPCNEDGYMSCKDGKASFTCTCKPGWQGEKCEFDINECKDPSNINGGCSQICDNTPGSYHCSCKNGFVMLSNKKDCKDVDECSLKPSICGTAVCKNIPGDFECECPEGYRYNLKSKSCEDIDECSENMCAQLCVNYPGGYTCYCDGKKGFKLAQDQKSCEVVSVCLPLNLDTKYELLYLAEQFAGVVLYLKFRLPEISRFSAEFDFRTYDSEGVILYAESIDHSAWLLIALRGGKIEVQLKNEHTSKITTGGDVINNGLWNMVSVEELEHSISIKIAKEAVMDINKPGPLFKPENGLLETKVYFAGFPRKVESELIKPINPRLDGCIRSWNLMKQGASGIKEIIQEKQNKHCLVTVEKGSYYPGSGIAQFHIDYNNVSSAEGWHVNVTLNIRPSTGTGVMLALVSGNNTVPFAVSLVDSTSEKSQDILLSVENTVIYRIQALSLCSDQQSHLEFRVNRNNLELSTPLKIETISHEDLQRQLAVLDKAMKAKVATYLGGLPDVPFSATPVNAFYNGCMEVNINGVQLDLDEAISKHNDIRAHSCPSVWKKTKNS
modifications: 125I label (Iodogen method) in the 125I-C4bp assays; labelled chain and residues not stated
notes: eight CCP domains; the predominant form has seven identical alpha chains; three CCP domains; one beta chain in the predominant form; protein S, human; co-purified with C4bp from plasma ('C4bp with protein S'); also called 125I-C4bp; serum C4bp; source: purified from pooled human plasma (with protein S); copies: 7 + 1 +
fold decrease of C4bp binding at 100 mM NaCl against 50 mM NaCl [1]: 2 fold
fold C4bp binding capacity against strain YeO3-c-OCR [2]: ~4 fold

— paper PMC2516929, “Yersinia enterocolitica Serum Resistance Proteins YadA and Ail Bind the Complement Regulator C4b-Binding Protein” (PLoS Pathogens, 2008)
